Results from publication PMC4421793, “A secretory kinase complex regulates extracellular protein phosphorylation” (eLife, 2015).

B1: Fam20C (93–584), recombinant (enzyme, human, UniProt Q8IXL6 93-584, looked up)
chain: DFSSDPSSNLSSHSLEKLPPAAEPAERALRGRDPGALRPHDPAHRPLLRDPGPRRSESPPGPGGDASLLARLFEHPLYRVAVPPLTEEDVLFNVNSDTRLSPKAAENPDWPHAGAEGAEFLSPGEAAVDSYPNWLKFHIGINRYELYSRHNPAIEALLHDLSSQRITSVAMKSGGTQLKLIMTFQNYGQALFKPMKQTREQETPPDFFYFSDYERHNAEIAAFHLDRILDFRRVPPVAGRMVNMTKEIRDVTRDKKLWRTFFISPANNICFYGECSYYCSTEHALCGKPDQIEGSLAAFLPDLSLAKRKTWRNPWRRSYHKRKKAEWEVDPDYCEEVKQTPPYDSSHRILDVMDMTIFDFLMGNMDRHHYETFEKFGNETFIIHLDNGRGFGKYSHDELSILVPLQQCCRIRKSTYLRLQLLAKEEYKLSLLMAESLRGDQVAPVLYQPHLEALDRRLRVVLKAVRDCVERNGLHSVVDDDLDTEHRAASAR
notes: human Fam20C, residues 93-584; also called recombinant Fam20C; source: Hi5 insect cells, purified from the conditioned medium (MBP tag removed by TEV protease digestion and gel filtration)

Tests used:
[1] = biological target: the molecule itself; test: SEC; one purified protein alone on Superdex 200 in 25 mM Tris-HCl pH 7.4, 150 mM NaCl; oligomeric state judged from the elution profile
[2] = biological target: B1; test: cell-based or functional assay
[3] = biological target: B1; test: SEC; two purified proteins (1 mg/ml each) incubated on ice for 2 hr, then Superdex 200 in 25 mM Tris-HCl pH 7.4, 150 mM NaCl; fractions on SDS-PAGE, Coomassie; settings: both partners purified

Binder	stoichiometry N [1]	Km of Fam20C (2 μg/ml) for ENAM (173–277) S191A with excess Fam20A (40 μg/ml); 14.6 μM without Fam20A, a ∼2.5-fold decrease [2]	kcat of Fam20C (2 μg/ml) for ENAM (173–277) S191A with excess Fam20A (40 μg/ml); 0.04 s^−1 without Fam20A, a 19-fold increase [2]	stoichiometry N [3]
B1	2			
Fam20A (63–529), recombinant (domain or fragment, human, UniProt Q96MK3 63-529, looked up, human Fam20A, residues 63-529; Cloned into a modified pI-secSUMOstar vector in which the SUMO tag was replaced by an MBP tag and a TEV site; also called recombinant Fam20A; source: Hi5 insect cells, purified from the conditioned medium (MBP tag removed by TEV protease digestion and gel filtration)) DPGTIVHNFSRTEPRTEPAGGSHSGSSSKLQALFAHPLYNVPEEPPLLGAEDSLLASQEALRYYRRKVARWNRRHKMYREQMNLTSLDPPLQLRLEASWVQFHLGINRHGLYSRSSPVVSKLLQDMRHFPTISADYSQDEKALLGACDCTQIVKPSGVHLKLVLRFSDFGKAMFKPMRQQRDEETPVDFFYFIDFQRHNAEIAAFHLDRILDFRRVPPTVGRIVNVTKEILEVTKNEILQSVFFVSPASNVCFFAKCPYMCKTEYAVCGNPHLLEGSLSAFLPSLNLAPRLSVPNPWIRSYTLAGKEEWEVNPLYCDTVKQIYPYNNSQRLLNVIDMAIFDFLIGNMDRHHYEMFTKFGDDGFLIHLDNARGFGRHSHDEISILSPLSQCCMIKKKTLLHLQLLAQADYRLSDVMRESLLEDQLSPVLTEPHLLALDRRLQTILRTVEGCIVAHGQQSVIVDGPVEQ		5.6 µM	0.76 s⁻¹	1
